Results from patent US5622828, “High-affinity oligonucleotide ligands to secretory phospholipase A2 (sPLA2)” (Nexstar Pharmaceuticals, Inc.).
Where a chain is given by its changes, count along the chain named.

T1: secretory phospholipase A2 (sPLA2) (Homo sapiens, UniProt P14555 P14555:21-144)
T1 sequence: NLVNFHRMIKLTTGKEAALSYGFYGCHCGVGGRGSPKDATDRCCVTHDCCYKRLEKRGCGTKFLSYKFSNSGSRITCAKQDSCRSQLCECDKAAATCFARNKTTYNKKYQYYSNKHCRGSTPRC

B1: 71 (ssRNA)
RNA: GGGAGCUCAGAAUAAACGCUCAAUCUCAUGCUCGUCGCACGGCGUAACCUAUUUCGACAUGAGGCCCGGAUCCGGC
B2: NN18 (ssRNA)
RNA: GGGAAAAGCGAAUCAUACACAAGAGGAUGGCGGCAAGGCGCGAAAGGGAGGAUCGAGGAGGAAUCGCGUCAGGAGCUCCGCCAGAGACCAACCGAGAA
modifications: 2'-NH2 all C and U
B3: NN39 (ssRNA)
RNA: GGGAAAAGCGAAUCAUACACAAGACUGGUUGUGCGGACCCAGUGAGUGGGAGGACGUGAGGGUGGCAGCUGGGCUCCGCCAGAGACCAACCGAGAA
modifications: 2'-NH2 all C and U
B4: NN19.13 (ssRNA)
RNA: GGGAAAAGAAGACCGGCCGGCGCCAUAGCCGAGAUCCGAGGUGUUGAGACCAACCGAGAA
modifications: 2'-NH2 all C and U
B5: NS10 (ssRNA)
RNA: GGGAGGACGAUGCGGUGACAAAUGAGCAAGUAGCGAUAGAUGUGAUGGACAGAGACAGCCGGGGCCAGACGACUCGCCCGA
modifications: 2'-NH2 all C and U
B6: NS6 (ssRNA)
RNA: GGGAGGACGAUGCGGAACUAAAAGACAGAGAGAAAACGACAAUACGAAGUACAUAUAACCCUGGCCAGACGACUCGCCCGA
modifications: 2'-NH2 all C and U
B7: NS12 (ssRNA)
RNA: GGGAGGACGAUGCGGUGAAAGAGAAAGGUUGAGAUGAUUACAAGCGAAUUGGAUAAGUGUCUGGCCAGACGACUCGCCCGA
modifications: 2'-NH2 all C and U
B8: NS39 (ssRNA)
RNA: GGGAGGACGAUGCGGGUAGGGAUGAAGUGCGAUGUGAAUCCGGGUGCUAGCGAUGAUGUGUGCCCCAGACGACUCGCCCGA
modifications: 2'-NH2 all C and U
B9: NS4 (ssRNA)
RNA: GGGAGGACGAUGCGGGUAGGGAUAAGCGAGUGUACAGCGAAUACGACUCGGAAUGCUUGGUGCGCCAGACGACUCGCCCGA
modifications: 2'-NH2 all C and U
B10: NN19.11 (ssRNA)
RNA: GGGAAAAGAAGACCGGCCGGCGCCAUAGCCGAGAUCCGAGGUGUUGAACGAUAGACCAACCGAGAA
modifications: 2'-NH2 all C and U
B11: NS7 (ssRNA)
RNA: GGGAGGACGAUGCGGAGGAAAUGAAGUAGUGAGAGUAUAACAUGAUUAUGAAUACGUGAUGUGGCCAGACGACUCGCCCGA
modifications: 2'-NH2 all C and U
B12: NN30 (ssRNA)
RNA: GGGAAAAGCGAAUCAUACACAAGAGCCAGCGAGUGUCGACAGUGUGGGUGGAAGUGACGGGAGGAUUGGAGACGCUCCGCCAGAGACCAACCGAGAA
modifications: 2'-NH2 all C and U
B13: NS48 (ssRNA)
RNA: GGGAGGACGAUGCGGGCUAAGGGAAGACAAUGAGAUAGCAGACAAUCAACUACACCCAUGUGCGUCAGACGACUCGCCCGA
modifications: 2'-NH2 all C and U
B14: NS1 (ssRNA)
RNA: GGGAGGACGAUGCGGAUAAGGAGGAGCAAGCGAGAAAUUGAGAAGUAACAAGAUCGACAUGGCCCCAGACGACUCGCCCGA
modifications: 2'-NH2 all C and U
B15: NN19.14 (ssRNA)
RNA: GGGAAAAGAAGACCGGCCGGCGCCAUAGCCGAGAUCCGAGGUGUUGAACGAUCCGAGAA
modifications: 2'-NH2 all C and U
B16: NS2 (ssRNA)
RNA: GGGAGGACGAUGCGGUAGUAACGGAUACUGAUCCGAGGUUAUAGUCACUAUAUCAUCCGCUGCGCCAGACGACUCGCCCGA
modifications: 2'-NH2 all C and U
B17: NS49 (ssRNA)
RNA: GGGAGGACGAUGCGGAUAAGGAUAAGAUCGAACGAGAGUGAACAAAGUUAAAUACAGUCUGGGGGCAGACGACUCGCCCGA
modifications: 2'-NH2 all C and U
B18: NN1 (ssRNA)
RNA: GGGAAAAGCGAAUCAUACACAAGACGGCGAGCAUGCGGCGAGUGGAGGGGGACUGAUGGAGGGCGAGACCGUGUGCUCCGCCAGAGACCAACCGAGAA
modifications: 2'-NH2 all C and U
B19: NN22 (ssRNA)
RNA: B18 RNA with G49A
modifications: 2'-NH2 all C and U
B20: NS14 (ssRNA)
RNA: GGGAGGACGAUGCGGAAAUGUGUUAGUGAAUGAUUGAGAGAAGAUAGAUGAUGUUGAAGUCUGGCCAGACGACUCGCCCGA
modifications: 2'-NH2 all C and U
B21: NN40 (ssRNA)
RNA: GGGAAAAGCGAAUCAUACACAAGACCCCUUGAGCUCGUGACGCAGGAGGAGGGCCGAGGAGGAAAGUCGUCACAGCUCCGCCAGAGACCAACCGAGAA
modifications: 2'-NH2 all C and U
B22: NS13 (ssRNA)
RNA: GGGAGGACGAUGCGGUGAGCUUAGGAUAGGAGCAACAAGUAGAGUAGAGUGAUAACUAGGGUGGCCAGACGACUCGCCCGA
modifications: 2'-NH2 all C and U
B23: NS18 (ssRNA)
RNA: GGGAGGACGAUGCGGAAGUAGAUGAUGGAUUGAGAUGUAAGUGUCAGUAUGAAGAGUCUCUGGGCCAGACGACUCGCCCGA
modifications: 2'-NH2 all C and U
B24: 72F (ssRNA)
RNA: GGGAGCUCAGAAUAAACGCUCAAGACCUCUGCUUACAGCCCGGCUGAGACACUUCGACAUGAGGCCCGGAUCCGGC
modifications: 2'-F all C and U
B25: 86tF (ssRNA)
RNA: GGGAGCUCAGAAUAAACGCUCAACGCCUCAUGCCAAUGCGGGAGGGUGGGUGGUUCGACAUGAGGCCCGGAUCCGGC
modifications: 2'-F all C and U
B26: 11tF (ssRNA)
RNA: GGGAGCUCAGAAUAAACGCUCAACUUACGGGUAAAGCCGAGAAAAUGUAUUGCUUCGACAUGAGGCCCGGAUCCGGC
modifications: 2'-F all C and U
B27: 73tF (ssRNA)
RNA: GGGAGCUCAGAAUAAACGCUCAACUUACAGUUCGGCUGAGAGAAGACGCAUACUUCGACAUGAGGCCCGGAUCCGGC
modifications: 2'-F all C and U
B28: NN10 (ssRNA)
RNA: GGGAAAAGCGAAUCAUACACAAGACCGGCCGGCGCCAUAGCCGAGAUCCGAGGUUGUACGAUGACAACUCAGUGCUCCGCCAGAGACCAACCGAGAA
modifications: 2'-NH2 all C and U
B29: NN11 (ssRNA)
RNA: GGGAAAAGCGAAUCAUACACAAGACCGGCCGGGGAAACCCGAGGUCCGAGGUAACGCAUGGCGCCUCACCGAGUCGCUCCGCCAGAGACCAACCGAGAA
modifications: 2'-NH2 all C and U
B30: NN16 (ssRNA)
RNA: B29 RNA with G44A
modifications: 2'-NH2 all C and U
B31: NN2 (ssRNA)
RNA: GGGAAAAGCGAAUCAUACACAAGAGACCGGCCAGCCAAGGCGCUGAGAUCCGAGGUUUCAGAACCCAUCGGGUUGGCUCCGCCAGAGACCAACCGAGAA
modifications: 2'-NH2 all C and U
B32: NN5 (ssRNA)
RNA: GGGAAAAGCGAAUCAUACACAAGACCGGCCCCGCCAAUCAAGGGAGAUCCGAGGAAUUGGAAUGUUUGUGAGUGAGCUCCGCCAGAGACCAACCGAGAA
modifications: 2'-NH2 all C and U
B33: NN29 (ssRNA)
RNA: GGGAAAAGCGAAUCAUACACAAGACCGGCCCGGUGUGUAGCCGGAGAUCCGAGACUUGCUGAACGAGGUGCCACGGCUCCGCCAGAGACCAACCGAGAA
modifications: 2'-NH2 all C and U
B34: NN41 (ssRNA)
RNA: B33 RNA with U38C, G65A
modifications: 2'-NH2 all C and U

These binders were tested against T1, secretory phospholipase A2 (sPLA2) (assay: filter; biphasic, Kd2 82 nM, mole fraction 0.60; TBSC with 5 mM CaCl2, 37 C). Details: tags: supplied by Eli Lilly.
Procedure: (§1) The nitrocellulose filter partitioning method was used as described in SELEX Patent Applications to determine the affinity of RNA ligands for sPLA_2 and for other promins. Filter discs (nitrocellulose/cellulose acetate mixed matrix, 0.45 µm pore size, Millipore) were placed on a vacuum manifold and washed with 5 ml of TBSC buffer under vacuum. Reaction mixtures, containing ^32P labeled RNA pools and sPLA_2, were incubated in TBSC for 5 minutes at 37° C., filtered, and then immediately washed with 5 ml TBSC. The filters were air-dried and counted in a Beckman liquid scintillation counter without fluor.
(§2) The dissociation constants for representative members of families I–VI, orphan and other ligands were determined by nitrocellulose filter binding experiments and are listed in Table III. Unlike random RNA, all tested ligands from the 2'OH SELEXes bound biphasically.

Binder	Kd
B1	1.3 nM

Each binder was assayed against T1, secretory phospholipase A2 (sPLA2) (assay: filter; like random pool; TBSC, 37 C). Details: tags: supplied by Eli Lilly.
Procedure: as §1, §2

Binder	Kd
B2	71 nM
B3	52 nM

The binders below were run against T1, secretory phospholipase A2 (sPLA2) (assay: filter; TBSC, 37 C). Details: tags: supplied by Eli Lilly.
Procedure: as §1, §2

Binder	Kd
B4	2.2 nM
B5	22 nM
B6	28 nM
B7	40 nM
B8	16 nM
B9	24 nM
B10	0.5 nM
B11	18 nM
B12	23 nM
B13	42 nM
B14	42 nM
B15	1 nM
B16	22 nM
B17	26 nM
B18	21 nM
B19	36 nM
B20	12 nM
B21	31 nM
B22	15 nM
GGGAAAAGAAGACCGGCCGGCGCCAUAGCCGAGAUCCGAGGUGUUGA (ssRNA, 2'-NH2 all C and U) [NN19.4]	7.3 nM
B23	52 nM

These binders were tested against T1, secretory phospholipase A2 (sPLA2) (assay: filter; monophasic; TBSC, 37 C). Details: tags: supplied by Eli Lilly.
Procedure: as §1, §2

Binder	Kd
B24	5.6 nM
B25	12 nM
B26	7 nM
B27	14 nM

Same assay, conditions: tags: supplied by Eli Lilly; hairpin with asymmetric internal loop

Binder	Kd
B28	0.4 nM
B29	2.8 nM
B30	0.9 nM
B31	1.2 nM
B32	4.6 nM
B33	2.5 nM
B34	1.2 nM
